The values that follow are results of earlier work, collected in publication PMC10426772.

Series [1] concerns the target leptin receptor (Homo sapiens) (UniProt P48357). Nature of the series: radio-receptor assay.
Series [2] addresses IGF receptor (human BBB) (Homo sapiens) (UniProt P08069). The series is described as follows: radio-receptor assay.
Series [3] has as its target IGF receptor (IGF1R, brain capillary) (Homo sapiens) (UniProt P08069). The series is described as follows: radio-receptor assay with [125I]-IGF2.
For series [4], the target named is insulin receptor (HIR, brain capillary) (Homo sapiens) (UniProt P06213). The series is described as follows: radio-receptor assay with [125I]-insulin.

Sequence of leptin (P41159 22-167): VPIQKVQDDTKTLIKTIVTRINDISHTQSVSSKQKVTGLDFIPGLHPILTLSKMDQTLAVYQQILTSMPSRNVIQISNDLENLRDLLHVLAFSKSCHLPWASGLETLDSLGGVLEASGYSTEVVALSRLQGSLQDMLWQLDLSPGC
Sequence of insulin (P01308 90-110): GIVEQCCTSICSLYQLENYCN
Sequence of leptin receptor (Homo sapiens) (P48357 22-839): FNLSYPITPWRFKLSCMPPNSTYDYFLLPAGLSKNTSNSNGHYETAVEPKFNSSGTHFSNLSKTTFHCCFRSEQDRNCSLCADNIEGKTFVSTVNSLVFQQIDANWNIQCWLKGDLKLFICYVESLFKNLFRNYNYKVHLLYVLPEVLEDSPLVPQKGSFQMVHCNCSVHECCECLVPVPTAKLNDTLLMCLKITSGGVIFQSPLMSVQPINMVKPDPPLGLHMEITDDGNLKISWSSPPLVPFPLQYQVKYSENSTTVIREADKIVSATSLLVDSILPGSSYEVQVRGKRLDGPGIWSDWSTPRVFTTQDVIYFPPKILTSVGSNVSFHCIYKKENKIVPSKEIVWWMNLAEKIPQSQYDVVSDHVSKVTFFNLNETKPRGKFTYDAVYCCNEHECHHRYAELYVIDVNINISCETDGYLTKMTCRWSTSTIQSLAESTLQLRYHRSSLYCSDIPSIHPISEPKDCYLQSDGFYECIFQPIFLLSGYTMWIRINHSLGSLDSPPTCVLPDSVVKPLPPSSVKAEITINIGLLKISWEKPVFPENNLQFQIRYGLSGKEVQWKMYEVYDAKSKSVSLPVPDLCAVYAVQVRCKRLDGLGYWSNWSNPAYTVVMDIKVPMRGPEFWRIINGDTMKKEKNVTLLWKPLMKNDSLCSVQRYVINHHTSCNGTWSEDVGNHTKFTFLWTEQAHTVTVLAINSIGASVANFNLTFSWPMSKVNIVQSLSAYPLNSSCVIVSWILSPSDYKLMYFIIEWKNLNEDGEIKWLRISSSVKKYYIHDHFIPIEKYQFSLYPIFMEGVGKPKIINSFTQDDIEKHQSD

As usually defined, the Kd is the equilibrium constant for the complex coming apart. In the case of leptin (from UniProt P41159), in series [1], the Kd is 5.1 nM.

For IGF2 (from UniProt P01344), the Kd in series [2] and in series [3] was 1.1 nM each time.

Turning to insulin (from UniProt P01308), in series [4], the Kd is 1.2 nM.
